Test results published in paper PMC9482650, “Quantitative fragmentomics allow affinity mapping of interactomes” (Nature Communications, 2022).

T1: MPP2, Q14168
T1 sequence (Q14168 180-250, limits assumed, looked up): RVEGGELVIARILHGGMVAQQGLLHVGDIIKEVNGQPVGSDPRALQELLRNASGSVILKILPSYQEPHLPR

T2: PDZRN3_1, Q9UPQ7
T2 sequence (Q9UPQ7 244-349, limits assumed, looked up): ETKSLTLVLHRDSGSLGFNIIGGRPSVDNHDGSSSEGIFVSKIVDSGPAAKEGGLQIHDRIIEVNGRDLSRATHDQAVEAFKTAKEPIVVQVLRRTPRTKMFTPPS

T3: MPP7, Q5T2T1
T3 sequence (Q5T2T1 134-230, limits assumed, looked up): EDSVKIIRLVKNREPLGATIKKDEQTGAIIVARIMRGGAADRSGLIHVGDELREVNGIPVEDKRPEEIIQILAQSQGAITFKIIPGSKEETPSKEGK

T4: APBA2_2, Q99767
T4 sequence (Q99767 654-744, limits assumed, looked up): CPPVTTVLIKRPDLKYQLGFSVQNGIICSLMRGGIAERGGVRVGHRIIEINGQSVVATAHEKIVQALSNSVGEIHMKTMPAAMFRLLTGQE

T5: PCLO, Q9Y6V0
T5 sequence (Q9Y6V0 4491-4600, limits assumed, looked up): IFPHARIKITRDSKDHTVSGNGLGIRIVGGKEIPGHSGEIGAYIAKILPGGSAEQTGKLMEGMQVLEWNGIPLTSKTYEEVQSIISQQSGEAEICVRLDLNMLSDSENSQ

T6: ARHGAP21, Q5T5U3
T6 sequence (Q5T5U3 45-169, limits assumed, looked up): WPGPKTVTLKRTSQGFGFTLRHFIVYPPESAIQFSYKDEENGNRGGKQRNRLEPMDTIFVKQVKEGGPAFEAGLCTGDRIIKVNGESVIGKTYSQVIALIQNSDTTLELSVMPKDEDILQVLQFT

T7: LNX2_3, Q8N448
T7 sequence (Q8N448 463-564, limits assumed, looked up): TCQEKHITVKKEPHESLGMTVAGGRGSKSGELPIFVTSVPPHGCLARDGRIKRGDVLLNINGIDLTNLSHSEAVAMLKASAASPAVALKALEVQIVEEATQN

T8: SNTG1, Q9NSN8
T8 sequence (Q9NSN8 52-150, limits assumed, looked up): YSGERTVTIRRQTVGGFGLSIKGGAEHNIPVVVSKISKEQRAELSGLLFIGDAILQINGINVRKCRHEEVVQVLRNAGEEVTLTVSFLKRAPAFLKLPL

T9: NHERF3_1, Q5T2W1
T9 sequence (Q5T2W1 4-100, limits assumed, looked up): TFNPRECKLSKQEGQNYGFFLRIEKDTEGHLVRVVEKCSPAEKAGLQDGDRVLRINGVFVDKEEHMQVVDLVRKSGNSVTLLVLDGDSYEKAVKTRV

T10: APBA1_2, Q02410
T10 sequence (Q02410 742-832, limits assumed, looked up): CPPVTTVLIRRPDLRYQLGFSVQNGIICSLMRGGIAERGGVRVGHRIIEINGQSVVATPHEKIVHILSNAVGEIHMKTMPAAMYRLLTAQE


Experiments:
Assay in all cases: holdup assay
Set-up in all cases: key: below the threshold = too weak to quantify, mostly under pKd 3.1 to 4
Conditions in all cases: plain residues with an end cap or a label only (N-terminal biotin on a linker: ado-ado)
[1] = molecular target: GRIP2_6, Q9C0E4
GRIP2_6, Q9C0E4, sequence (Q9C0E4 648-740): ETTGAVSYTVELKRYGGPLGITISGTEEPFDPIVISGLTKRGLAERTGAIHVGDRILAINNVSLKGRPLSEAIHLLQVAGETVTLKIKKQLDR

[2] = molecular target: TJP1_3, Q07157
TJP1_3, Q07157, sequence (Q07157 416-512): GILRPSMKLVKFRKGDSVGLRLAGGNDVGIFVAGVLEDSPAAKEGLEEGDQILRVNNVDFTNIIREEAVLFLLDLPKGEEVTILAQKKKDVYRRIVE

[3] = molecular target: SCRIB_3, Q14160
SCRIB_3, Q14160, sequence (Q14160 999-1103): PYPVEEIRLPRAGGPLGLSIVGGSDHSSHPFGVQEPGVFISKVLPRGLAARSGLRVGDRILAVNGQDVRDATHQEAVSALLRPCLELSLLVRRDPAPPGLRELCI

[4] = molecular target: GRIP2_4, Q9C0E4
GRIP2_4, Q9C0E4, sequence (Q9C0E4 446-548): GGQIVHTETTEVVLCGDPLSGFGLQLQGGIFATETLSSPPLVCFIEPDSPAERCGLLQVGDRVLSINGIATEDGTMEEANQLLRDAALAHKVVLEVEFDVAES

[5] = molecular target: IL16_3, Q14005
IL16_3, Q14005, sequence (Q14005 1107-1207): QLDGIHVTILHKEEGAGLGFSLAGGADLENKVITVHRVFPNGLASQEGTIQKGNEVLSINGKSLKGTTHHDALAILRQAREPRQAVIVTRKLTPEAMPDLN

[6] = molecular target: LNX1_3, Q8TBB1
LNX1_3, Q8TBB1, sequence (Q8TBB1 500-596): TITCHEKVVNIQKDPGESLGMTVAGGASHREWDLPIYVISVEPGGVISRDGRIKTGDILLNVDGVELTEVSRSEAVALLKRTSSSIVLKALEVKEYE

[7] = molecular target: T1, MPP2, Q14168
[8] = molecular target: LNX1_1, Q8TBB1
LNX1_1, Q8TBB1, sequence (Q8TBB1 261-371): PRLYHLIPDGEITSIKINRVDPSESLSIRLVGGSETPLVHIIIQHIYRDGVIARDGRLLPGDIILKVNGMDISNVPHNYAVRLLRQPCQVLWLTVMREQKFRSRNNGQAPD

[9] = molecular target: GRIP2_3, Q9C0E4
GRIP2_3, Q9C0E4, sequence (Q9C0E4 238-339): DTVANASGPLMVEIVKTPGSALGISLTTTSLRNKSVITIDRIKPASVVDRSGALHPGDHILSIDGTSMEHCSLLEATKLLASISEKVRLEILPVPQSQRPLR

[10] = molecular target: T2, PDZRN3_1, Q9UPQ7
[11] = molecular target: GRID2IP_2, A4D2P6
GRID2IP_2, A4D2P6, sequence (A4D2P6 272-370): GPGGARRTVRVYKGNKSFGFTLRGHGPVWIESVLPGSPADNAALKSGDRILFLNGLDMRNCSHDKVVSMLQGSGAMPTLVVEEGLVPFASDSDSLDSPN

[12] = molecular target: IL16_1, Q14005
IL16_1, Q14005, sequence (Q14005 210-306): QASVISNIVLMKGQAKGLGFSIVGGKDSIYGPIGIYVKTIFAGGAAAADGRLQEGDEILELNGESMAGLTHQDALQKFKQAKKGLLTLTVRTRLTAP

[13] = molecular target: T3, MPP7, Q5T2T1
[14] = molecular target: T4, APBA2_2, Q99767
[15] = molecular target: PTPN3, P26045
PTPN3, P26045, sequence (P26045 505-587): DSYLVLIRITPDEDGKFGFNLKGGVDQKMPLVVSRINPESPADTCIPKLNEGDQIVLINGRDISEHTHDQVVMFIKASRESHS

[16] = molecular target: T5, PCLO, Q9Y6V0
[17] = molecular target: MAGI2_5, Q86UL8
MAGI2_5, Q86UL8, sequence (Q86UL8 915-1017): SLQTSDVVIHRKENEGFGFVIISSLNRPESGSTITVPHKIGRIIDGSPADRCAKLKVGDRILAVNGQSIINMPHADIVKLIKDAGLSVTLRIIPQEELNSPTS

[18] = molecular target: T6, ARHGAP21, Q5T5U3
[19] = molecular target: DLG1_1, Q12959
[20] = molecular target: Inadl_10, Q8NI35
Inadl_10, Q8NI35, sequence (Q8NI35 1673-1763): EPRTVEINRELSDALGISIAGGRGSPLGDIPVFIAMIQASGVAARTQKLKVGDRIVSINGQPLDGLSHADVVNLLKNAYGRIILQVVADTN

[21] = molecular target: DLG4_2, P78352
DLG4_2, P78352, sequence (P78352 155-259): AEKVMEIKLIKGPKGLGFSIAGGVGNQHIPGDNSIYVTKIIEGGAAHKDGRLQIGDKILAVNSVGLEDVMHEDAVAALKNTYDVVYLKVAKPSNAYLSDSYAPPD

[22] = molecular target: T7, LNX2_3, Q8N448
[23] = molecular target: T8, SNTG1, Q9NSN8
[24] = molecular target: T9, NHERF3_1, Q5T2W1
[25] = molecular target: T10, APBA1_2, Q02410
[26] = molecular target: MAGI2_4, Q86UL8
MAGI2_4, Q86UL8, sequence (Q86UL8 772-865): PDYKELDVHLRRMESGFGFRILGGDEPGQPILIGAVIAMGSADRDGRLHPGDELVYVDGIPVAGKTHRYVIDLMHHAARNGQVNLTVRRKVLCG

[27] = molecular target: GRIP2_5, Q9C0E4
GRIP2_5, Q9C0E4, sequence (Q9C0E4 544-642): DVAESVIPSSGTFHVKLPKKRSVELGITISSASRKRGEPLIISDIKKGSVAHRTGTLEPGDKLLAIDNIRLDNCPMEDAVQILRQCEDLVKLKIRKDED

[28] = molecular target: FRMPD4, Q14CM0
FRMPD4, Q14CM0, sequence (Q14CM0 67-160): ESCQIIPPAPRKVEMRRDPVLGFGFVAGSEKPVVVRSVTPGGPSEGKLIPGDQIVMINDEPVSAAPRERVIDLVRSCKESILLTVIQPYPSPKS

Binder | pKd [1] | pKd [2] | pKd [3] | pKd [4] | pKd [5] | pKd [6] | pKd [7] | pKd [8] | pKd [9] | pKd [10] | pKd [11] | pKd [12] | pKd [13] | pKd [14] | pKd [15] | pKd [16] | pKd [17] | pKd [18] | pKd [19] | pKd [20] | other results
SPDRDRESIV [SCN5A, Q14524] | below the threshold | below the threshold | 3.86 | below the threshold | below the threshold | below the threshold | below the threshold | 3.88 | below the threshold | 3.91 | 3.63 | 5.08 | below the threshold | below the threshold | 4.78 | below the threshold | 4.12 | 3.91 | 4.28 | below the threshold | pKd [21]: 4.73; pKd [22]: below the threshold; pKd [23]: 4.72; pKd [24]: 3.72; pKd [25]: 3.55; pKd [26]: 3.63; pKd [27]: below the threshold; pKd [28]: below the threshold
TNSRHGETTV [FZD2, Q14332] | below the threshold | below the threshold | 4.62 | below the threshold | below the threshold | below the threshold | below the threshold | below the threshold | below the threshold | 3.99 | 3.53 | 3.76 | below the threshold | below the threshold | 4.61 | below the threshold | 3.6 | 4.04 | 4.76 | below the threshold | pKd [21]: 4.92; pKd [22]: below the threshold; pKd [23]: 4.27; pKd [24]: below the threshold; pKd [25]: 3.71; pKd [26]: 4.1; pKd [27]: below the threshold; pKd [28]: below the threshold
STKRKLASAV [NCF1, P14598] | below the threshold | below the threshold | 3.55 | below the threshold | below the threshold | below the threshold | below the threshold | below the threshold | below the threshold | below the threshold | 4.28 | 3.52 | below the threshold | below the threshold | 3.95 | below the threshold | 3.99 | below the threshold | 3.68 | below the threshold | pKd [21]: 4.51; pKd [22]: below the threshold; pKd [23]: below the threshold; pKd [24]: below the threshold; pKd [25]: 3.88; pKd [26]: below the threshold; pKd [27]: below the threshold; pKd [28]: below the threshold
ARESQKVSHV [FAM110B, Q8TC76] | below the threshold | below the threshold | 4.47 | below the threshold | below the threshold | below the threshold | below the threshold | 3.97 | below the threshold | below the threshold | 4.66 | 4.17 | below the threshold | below the threshold | 4.51 | below the threshold | 3.66 | 3.92 | 3.95 | below the threshold | pKd [21]: 4.53; pKd [22]: below the threshold; pKd [23]: 4.34; pKd [24]: below the threshold; pKd [25]: 4.41; pKd [26]: below the threshold; pKd [27]: below the threshold; pKd [28]: below the threshold
